According to patent publication US20220340642A1 (Kyowa Kirin, published 2022):
Where a chain is given by its changes, count along the chain named. In names and notes the source's numbering stands.

T1: soluble recombinant of human TL1A (His6, GS linker, Leu72-Leu251) (UniProt O95150 72-251)
T1 chain: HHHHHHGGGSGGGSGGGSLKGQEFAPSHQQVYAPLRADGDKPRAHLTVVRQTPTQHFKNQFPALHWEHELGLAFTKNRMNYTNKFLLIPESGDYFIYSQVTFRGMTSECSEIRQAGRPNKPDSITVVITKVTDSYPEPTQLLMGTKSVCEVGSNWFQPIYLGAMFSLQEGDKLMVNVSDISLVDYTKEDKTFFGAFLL

T2: soluble recombinant of human LIGHT (His10, GS linker, Asp74-Val240)
T2 chain: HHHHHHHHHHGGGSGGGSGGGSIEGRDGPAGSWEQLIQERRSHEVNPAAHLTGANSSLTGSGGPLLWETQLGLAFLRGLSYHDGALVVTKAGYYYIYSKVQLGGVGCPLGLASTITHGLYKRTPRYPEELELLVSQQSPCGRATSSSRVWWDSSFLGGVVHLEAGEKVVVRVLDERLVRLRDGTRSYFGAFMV

T3: soluble recombinant of human FasL (His6, Pro134-Leu281) (UniProt P48023 134-281)
T3 chain: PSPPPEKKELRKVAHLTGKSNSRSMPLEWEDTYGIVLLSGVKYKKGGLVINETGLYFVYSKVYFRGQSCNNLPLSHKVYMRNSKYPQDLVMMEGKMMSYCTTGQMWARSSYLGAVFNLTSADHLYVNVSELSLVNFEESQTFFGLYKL

T4: primary soluble TL1A produced from an activated human PBMC (human, UniProt O95150 72-251, limits assumed)
T4 sequence (looked up): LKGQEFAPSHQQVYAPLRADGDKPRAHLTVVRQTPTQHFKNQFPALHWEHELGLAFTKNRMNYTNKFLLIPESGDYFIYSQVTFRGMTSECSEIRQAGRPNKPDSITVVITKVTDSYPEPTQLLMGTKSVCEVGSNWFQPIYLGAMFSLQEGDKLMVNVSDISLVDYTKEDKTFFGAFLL

T5: Human His6 Fas Ligand/TNFSF6 (Cell Signaling Technology, Inc.) (human, UniProt P48023 133-281)
T5 construct: Bought; confirmed as a trimer by SEC-MALS; also called recombinant human His6 Fas Ligand; soluble human FasL trimer
T5 sequence: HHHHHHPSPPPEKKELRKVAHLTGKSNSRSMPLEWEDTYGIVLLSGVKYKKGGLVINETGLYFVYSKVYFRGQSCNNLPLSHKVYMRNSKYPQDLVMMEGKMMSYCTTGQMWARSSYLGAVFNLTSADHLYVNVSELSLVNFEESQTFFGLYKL

B1: chimera A-E57K_R58D-Fc (Eg1S LALAGANA) (Fc fusion)
chain: ETFPPKYLHYDEETSHQLLCDKCPPGTYLKQHCTAKWKTVCAPCPPRHYTQFWNYLKDCRYCNVLCGEREEEARACHATHNRACRCRTGFFAHAGFCLEHASCPPGAGVIAPGTPSQNTQCQPCPDGFFSNETSSKAPCRKHTNCSVFGLLLTQKGNATHDNICSGNSESTQKEPKSSDKTHTCPPCPAPEAAGAPSVFLFPPKPKDTLMISRTPEVTCVVVDVSHEDPEVKFNWYVDGVEVHNAKTKPREEQYNSTYRVVSVLTVLHQDWLNGKEYKCKVSNKALPAPIEKTISKAKGQPREPQVYTLPPSRDELTKNQVSLTCLVKGFYPSDIAVEWESNGQPENNYKTTPPVLDSDGSFFLYSKLTVDKSRWQQGNVFSCSVMHEALHAHYTQKSLSLSPGK
B2: chimera A-E57V-Fc (Eg1S LALAGANA) (Fc fusion)
chain: B1 chain with K57V, D58R
B3: chimera A-Fc (Eg1S YTE) (Fc fusion)
chain: B1 chain with K57E, D58R, A192L, A193L, A195G, M210Y, S212T, T214E, A392N
B4: chimera A-E57K-Fc (Eg1S YTE) (Fc fusion)
chain: B1 chain with D58R, A192L, A193L, A195G, M210Y, S212T, T214E, A392N
B5: chimera A-E57K_R58E-Fc (Eg1S LALAGANA) (Fc fusion)
chain: B1 chain with D58E
B6: chimera A-E57V-Fc (Eg1S YTE) (Fc fusion)
chain: B1 chain with K57V, D58R, A192L, A193L, A195G, M210Y, S212T, T214E, A392N
B7: chimera A-E57R-Fc (Eg1S YTE) (Fc fusion)
chain: B1 chain with K57R, D58R, A192L, A193L, A195G, M210Y, S212T, T214E, A392N
B8: chimera A-E57K-Fc (Eg1S LALAGANA) (Fc fusion)
chain: B1 chain with D58R
B9: chimera A-E57R-Fc (Eg1S LALAGANA) (Fc fusion)
chain: B1 chain with K57R, D58R
B10: chimera A-Fc (Eg1S LALAGANA) (Fc fusion)
chain: B1 chain with K57E, D58R
B11: chimera A-E57K_R58D-Fc (Eg1S YTE) (Fc fusion)
chain: B1 chain with A192L, A193L, A195G, M210Y, S212T, T214E, A392N
notes: also called 45-10-Fc (Eg1S YTE)
B12: chimera A-E57K_R58E-Fc (Eg1S YTE) (Fc fusion)
chain: B1 chain with D58E, A192L, A193L, A195G, M210Y, S212T, T214E, A392N
notes: also called 45-18-Fc (Eg1S YTE)

Molecular target: T1, soluble recombinant of human TL1A …
Test: BIAcore SPR
Summary of the method: (§1)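 The dissociation constant (Kd, nM) reflects binding of each test molecule to soluble recombinant His-tagged human or cynomolgus monkey LIGHT, TL1A or FasL. It was derived from surface plasmon resonance measurements in HBS-EP+ Buffer using a BIAcore T-100 or T-200 instrument (GE Healthcare).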

Row | Kd [nM] | Binder
1 | 0.2 | B1
2 | 0.23 | B2
3 | 0.16 | B3
4 | 0.28 | B4
5 | 0.16 | B5
6 | 0.24 | B6
7 | 0.33 | B7
8 | 0.24 | B8
9 | 0.31 | B9
10 | 0.12 | B10
11 | 0.25 | B11
12 | 0.2 | B12

Molecular target: T2, soluble recombinant of human LIGHT …
Test: BIAcore SPR
Summary of the method: as §1

Row | Kd [nM] | Binder
13 | 0.3 | B1
14 | 0.33 | B2
15 | 0.27 | B3
16 | 0.38 | B4
17 | 0.29 | B5
18 | 0.35 | B6
19 | 0.39 | B7
20 | 0.34 | B8
21 | 0.38 | B9
22 | 0.2 | B10
23 | 0.4 | B11
24 | 0.33 | B12

Molecular target: T3, soluble recombinant of human FasL …
Test: BIAcore SPR
Summary of the method: as §1

Row | Kd [nM] | Binder
25 | 4.6 | B1
26 | 5.2 | B2
27 | 1.2 | B3
28 | 4.3 | B4
29 | 4.6 | B5
30 | 5.3 | B6
31 | 5.1 | B7
32 | 3.3 | B8
33 | 4.6 | B9
34 | 0.75 | B10
35 | 5.7 | B11
36 | 5.6 | B12

molecular target: T4, primary soluble TL1A produced from an …; test: sandwich ELISA, binder captured
Method: Then, 10 μg/mL of anti-human IgG antibodies (American Qualex International, Inc.) were immobilized to a 96-well immunoplate (Thermo Scientific), and blocking was performed with 2% Block Ace (DS Pharma Biomedical Co., Ltd.), and then 2 μg/mL of chimera A-Fc, E57K-Fc and 45-18-Fc (in all of which Fc is Eg1S YTE or Eg1S […]) were captured. The culture supernatant of human T cells stimulated for LIGHT production was concentrated 6-fold using Amicon Ultra-15 having a molecular weight cutoff of 3 kDa (Merck Millipore) prerinsed with sterile water. After the plate was washed, the 6-fold concentrated culture supernatant was reacted. As a standard of LIGHT, the soluble recombinant FLAG-LIGHT trimer produced in Example 13 was used. After the plate was washed, a biotinylated anti-LIGHT antibody (R&D Systems, Inc.) was reacted. After the plate was washed, streptavidin-HRP (PIERCE) was reacted. After washing again, a TMB solution (Dako) was added to develop a color. Then, a 2 N sulfuric acid solution was used to stop the chromogenic reaction, and the absorbance at 450 nm (reference wavelength of 570 nm) was measured.
Sandwich ELISA was performed by the same method as in (1). On a 96-well immunoplate, chimera A-Fc, E57K-Fc and 45-18-Fc (in all of which Fc is Eg1S YTE or Eg1S […]) or the anti-human TL1A antibody produced in Example 16 was captured. Then, with the plate, a 4-fold concentrated culture supernatant of PBMCs stimulated for TL1A production or as a standard, the soluble recombinant His6-TL1A trimer produced in Example 13 was reacted, followed by detection with a biotinylated anti-TL1A antibody (R&D Systems, Inc.).
Sandwich ELISA was performed by the same method as in (1). On a 96-well immunoplate, chimera A-Fc, E57K-Fc and 45-18-Fc (each including Eg1S YTE or Eg1S […] as an Fc) or Fas-Fc (R&D Systems, Inc.) was captured, and then a 6-fold concentrated culture supernatant of human T cells stimulated for AICD or as a standard, Human His6 Fas Ligand/TNFSF6 (Cell Signaling Technology, Inc.) was reacted, followed by detection with a biotinylated anti-FasL antibody included with Human Fas Ligand ELISA Kit (Abcam plc).

Row | binding result | Binder
37 | binds | B3
38 | binds | B4
39 | binds | B5
40 | binds | B8
41 | binds | B10
42 | binds | B12

molecular target: T5, Human His6 Fas Ligand/TNFSF6 (Cell …); test: SPR, binder captured on Protein A chip
Method: The binding activity to human and cynomolgus monkey DcR3 ligand trimers were analyzed by the SPR method. BIAcore T-100 (GE Healthcare) was used for measurement of the binding activities to human LIGHT, cynomolgus monkey LIGHT, human TL1A and cynomolgus monkey TL1A, and BIAcore T-200 (GE Healthcare) was used for measurement of the binding activities to human FasL and cynomolgus monkey FasL. As the buffer, HBS-EP+Buffer was used.
Various DcR3 variants were injected into Series S Sensor Chip Protein A (GE Healthcare) at 10 μL/min for 30 seconds and captured. Meanwhile, the buffer containing no protein was injected into a reference flow cell. Thereafter, as an analyte, each human DcR3 ligand trimer or each cynomolgus monkey DcR3 ligand trimer diluted to 0.08 to 20 nmol/L was injected. A human LIGHT trimer, a human TL1A trimer or each cynomolgus monkey DcR3 ligand trimer was injected at the flow rate of 30 μL/min for 2 minutes to monitor the binding, and subsequently the buffer was injected for 5 minutes to monitor dissociation. A human FasL trimer was injected at 30 μL/min for 1 minute to monitor the binding, and subsequently the buffer was injected for 3 minutes to monitor dissociation. Then, 3 mol/L magnesium chloride was injected at 30 μL/min for 1 minute to perform a regeneration reaction.

Row | binding result | Binder
43 | binds | B1
44 | binds | B2
45 | binds | B3
46 | binds | B4
47 | binds | B5
48 | binds | B6
49 | binds | B7
50 | binds | B8
51 | binds | B9
52 | binds | B10
53 | binds | B11
54 | binds | B12
